# Data: paper PMC7269643 (Science Advances, 2020)
# Biological target: the molecule itself
# Assay: AUC
protein,measurement,value
"VapB22 antitoxin (Rv2830c) from Mycobacterium tuberculosis, expressed alone from pET28b (natural protein) MTATEVKAKILSLLDEVAQGEEIEITKHGRTVARLVAATGPHALKGRFSGVAMAAADDDELFTTGVSWNVS",stoichiometry N,2
